Source: patent US20020142982A1, “Method for regulating angiogenesis” (priority 1999, published 2002)

Target: HA-tagged wild-type Akt (UniProt P31749)
Test: cell-based or functional assay

restoration of S1P-induced HUVEC chemotaxis by increasing wild-type Akt virus: 65%
Substance: T236A EDG-1 mutant receptor (from UniProt P21453 1-382)
